Experimental findings from paper PMC5735676, “Leishmania braziliensis SCD6 and RBP42 proteins, two factors with RNA binding capacity” are described below.

The target in data set [1] is T1, rLbRBP42 (Leishmania braziliensis, UniProt A4HIP3 1-338).
T1 sequence: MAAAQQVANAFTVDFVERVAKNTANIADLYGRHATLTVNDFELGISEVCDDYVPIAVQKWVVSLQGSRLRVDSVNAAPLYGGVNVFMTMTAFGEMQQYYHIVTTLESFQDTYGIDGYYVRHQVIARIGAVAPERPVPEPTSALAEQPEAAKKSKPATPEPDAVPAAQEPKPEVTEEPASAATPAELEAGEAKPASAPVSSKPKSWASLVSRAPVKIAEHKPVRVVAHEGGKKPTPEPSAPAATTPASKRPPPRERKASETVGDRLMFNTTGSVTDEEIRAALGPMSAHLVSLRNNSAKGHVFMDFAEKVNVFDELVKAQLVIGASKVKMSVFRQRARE
The data set is described as follows: EMSA; 6 mM Mg2+, heparin; 3 pM protein, 12.5 nM RNA; EMSA: 10 mM HEPES pH 7.3, 20 mM KCl, 6 mM MgCl2, 1 mM DTT, 0.05% NP-40, 1 ug/ul heparin, 40 U RNaseOUT, room temperature 20 min, 6% native PAGE 0.5x TBE; pull-down at room temperature on His-tag Dynabeads, 1x pull-down buffer (composition not stated). The note with it: protein: recombinant; tags: His tag (nickel column); label: 5' digoxigenin.

The target of data set [2] is T2, rLbSCD6 (Leishmania braziliensis, UniProt A4HEG4 1-294).
T2 sequence: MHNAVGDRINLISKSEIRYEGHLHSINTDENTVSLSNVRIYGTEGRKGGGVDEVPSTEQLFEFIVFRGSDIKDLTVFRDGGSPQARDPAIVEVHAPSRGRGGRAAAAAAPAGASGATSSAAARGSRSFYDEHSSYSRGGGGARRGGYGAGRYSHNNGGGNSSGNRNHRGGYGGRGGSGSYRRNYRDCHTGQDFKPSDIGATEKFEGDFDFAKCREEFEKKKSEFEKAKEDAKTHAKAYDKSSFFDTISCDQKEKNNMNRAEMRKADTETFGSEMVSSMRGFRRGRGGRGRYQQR
The data set is described as follows: EMSA; 6 mM Mg2+, heparin; 12.5 nM RNA; EMSA: 10 mM HEPES pH 7.3, 20 mM KCl, 6 mM MgCl2, 1 mM DTT, 0.05% NP-40, 1 ug/ul heparin, 40 U RNaseOUT, room temperature 20 min, 6% native PAGE 0.5x TBE; pull-down at room temperature on His-tag Dynabeads, 1x pull-down buffer (composition not stated). Particulars: protein: recombinant; tags: His tag (nickel column); label: 5' digoxigenin. For orientation: In EMSA bound probe runs differently from free probe, usually more slowly.

Data set [3] deals with T1, rLbRBP42. The data set is described as follows: competition; vs 12.5 nM labeled N2; decrease of complex only at 4-fold cold RNA; EMSA: 10 mM HEPES pH 7.3, 20 mM KCl, 6 mM MgCl2, 1 mM DTT, 0.05% NP-40, 1 ug/ul heparin, 40 U RNaseOUT, room temperature 20 min, 6% native PAGE 0.5x TBE; pull-down at room temperature on His-tag Dynabeads, 1x pull-down buffer (composition not stated). Particulars: protein: recombinant; tags: His tag (nickel column).

In data set [4] the target is T2, rLbSCD6. The data set is described as follows: competition; vs 12.5 nM labeled N2; completely competed at 1-fold cold RNA; EMSA: 10 mM HEPES pH 7.3, 20 mM KCl, 6 mM MgCl2, 1 mM DTT, 0.05% NP-40, 1 ug/ul heparin, 40 U RNaseOUT, room temperature 20 min, 6% native PAGE 0.5x TBE; pull-down at room temperature on His-tag Dynabeads, 1x pull-down buffer (composition not stated). The note with it: protein: recombinant; tags: His tag (nickel column).

Data set [5] addresses T1, rLbRBP42. In words: competition; vs 12.5 nM labeled N2; up to 8-fold (100 nM) cold RNA; EMSA: 10 mM HEPES pH 7.3, 20 mM KCl, 6 mM MgCl2, 1 mM DTT, 0.05% NP-40, 1 ug/ul heparin, 40 U RNaseOUT, room temperature 20 min, 6% native PAGE 0.5x TBE; pull-down at room temperature on His-tag Dynabeads, 1x pull-down buffer (composition not stated). Particulars: protein: recombinant; tags: His tag (nickel column).

For data set [6], the target named is T2, rLbSCD6. The description is as above. The note with it: protein: recombinant; tags: His tag (nickel column).

B1: 3' UTR-II.1 motif (ssRNA)
RNA: AUGUCUUUUAUUUUUUUGUGUGUGUUUUAUAUUUUUCUCCUUUCGUACUAA
As to B1, the binding result with rLbRBP42 [1] and with rLbSCD6 [2] was “binds” each time.

B2: 3' UTR-II.1 motif, cold (ssRNA)
RNA: AUGUCUUUUAUUUUUUUGUGUGUGUUUUAUAUUUUUCUCCUUUCGUACUAA
As to B2, the binding result with rLbRBP42 [3] and in the data set with rLbSCD6 [4] was “binds” in each case.

B3: 3' UTR-II.1 antisense (ssRNA)
RNA: UACAGAAAAUAAAAAAACACACACAAAAUAUAAAAAGAGGAAAGCAUGAUU
As to B3, the binding result in the data set with rLbRBP42 [5] and with rLbSCD6 [6] was “no binding” in each case.
